The values that follow come from a protein production outcome set (Wang et al. 2014).

The nature of this series: label from the status in PepcDB records.
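Further: failed if final PepcDB status was selected cloned or expressed and not failed if soluble or beyond.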

As for “MEMIGGDDTDTEMYGALVTAQSLRLRHLHHCRENQCTSVLVKYIQAPVHLVWSLVRRFDQPQKYKPFISRCTVNGDPEIGCLREVNVKSGLPATTSTERLEQLDDEEHILGINIIGGDHRLKNYSSILTVHPEMIDGRSGTMVMESFVVDVPQGNTKDDTCYFVESLIKCNLKSLACVSERLAAQDITNSIATFCNASNGYREKNHTETNL”, the protein production entry was “failed”.

“MEMIRGRGIPNGVVQVPNLSANNLLQKFFIASNHFCQRDSEHGENQQEAKKREDEAEEDEKDVELTLGLSLNGQFGTDPRSRKRRHFELGRSSSIPEGFVFDEQRSGGGNGGDMRRIVGRGGSDMFQLDRTRSLPVVTEMDIEKERKVSEKTRAFMESPVTNRGAYLTKDKNRGQAVETEKPRAFLEFKIPPTKEGKKEKDRLVVTGPVNGKGKNGNTAKKQKNNVENSGMEKARNILEDMPCVSTRDVGADGKRVEGFLYWYGGNKEEVKIVCVCHGSFLSPAEFVRHGGGTVSDDDGGDVMINPLRHIVVKLPSSSI”: the protein production entry was “failed”.

“MEMVNAEAKQSVPLLTPYKMGRFNLSHRVVLAPLTRQKSYGSVPQPHAILYYSQRTSPGGFLIAEATGVSDTAQGYPDTPGIWTKEHVEAWKPIVDAVHAKGGIFFCQIWHVGRVSNRGFQPRRQAPISCTGKPIMPQMRANGIDEARFTPPRRLSIEEIPGIVNDFRLAARNAMEAGFDGVEIHGAHGYLIDQFMKDKVNDRTDEYGGSLQNRCKFALEVVDAVAKEIGPDRVGIRLSPFADYMESGDTNPEALGLYMVESLNKYGILYCHMIEPRMKTVGEIAACSHTLMPMREAFKGTFISAGGFTREDGNEAVAKGRTDLVAYGRWFLANPDLPKRFQLDAPLNKYNRSTFYTSDPVVGYTDYPSLESTA”: the protein production result is on record as “failed”.

As for “MEMYFKRMKDEWTGLVEQADPPIRAKAAEIAVAHAHYLSIEFYRIVRIDPHAEEFLSNEQVERQLKSAMERWIINVLSAQVDDVERLIQIQHTVAEVHARIGIPVEIVEMGFRVLKKILYPVIFSSDYSAAEKLQVYHFSINSIDIAMEVMTRAFTFSDSSASKEDENYRIFSLLENAEEEKERQIASILSWEIDIIYKILLDSDLGSSLPLSQADFGLWFNHKGRHYFSGIAEVGHISRLIQDFDGIFNQTMRNTRNLNNRSLRVKFLLQIRNTVSQIITLLRELFEEVSRHEVGMDVLTKLLNRRFLPTIFKREIAHANRTGTPLSVLIIDVDKFKEINDTWGHNTGDEILRKVSQAFYDNVRSSDYVFRYGGDEFIIVLTEASENETLRTAERIRSRVEKTKLKAANGEDIALSLSIGAAMFNGHPDYERLIQIADEALYIAKRRGRNRVELWKASL”, the protein production result is listed as “failed”.

Take “MENEKIWIKELKEKRLAYGVSQNKLAVASHITRPYLSDIETGKAVPTQQVKEDLLNALERFNPDNPLEMLFDYVRIRFPTNDVAQIIGEVLRLNMDYMLHEDFGYYSYPEHYRFGDIVVLVSHDVSKGVLLELKGKGCRQFENFLLAQHRSWYDFFQDCMEHKGIFKRLDLAINDKTGILNIPDLAKKCKQEECISVFRSFKNYRSGELVHRDEKPYMGNTLYIGSLKSEVYFCIYEKDYEQYVKNDVPLEDAEVKNRFEIRLKNDRATQAMKDLLAHQQAEKTAFEIINRYIRFADKDDTKRRSDWKTNERWEWFIGKNRGALRLTTQPEPYSFERTLNWLHHQVAPTLKIASILDVLNGTTIISTMIQEAKLTEKHEKLIEQQHLAMEDLIT”: the protein production result is listed as “not failed”.

Turning to “MENEVTLLDLLWALRRAFLRLLLLALGVGLGVYALSLLLPKRYESAALLWLDLRPFPSQEALRPFPSQEALRPFPSQEALSPDQPLTSPPLASLVQALDLSLPTLRLSPAGEPASRFAQVEWDAKAQVLSLRAFGATPEEAQRRATKLLEEARSFLQARVREAYGGLAAAELARAEKALGLLEKALQEEVPQVSSRGSADLAPFLEAQGTPPPVARAQDPAATYLALKRAELLAEASRLQAQVAWLRDLLAQDGTWDRFLAESVLLSPTLPERPLAPRPLAYGVLAALGALLLGVLWVFLATVLRPGGAGVPQSDA”, the protein production entry was “failed”.

As for “MENFLSLFDFFKSKIRYIFLIYTIFTIYMNSKNCFINYVLLIFLDVILIIYSFIFLNKKQKYPFLFIIISTIVYAFIWLFGHCDNIYYFIILDDIFEIKADFKKKLLVAIHSSAFMMVTLKNLIFKNYDLHEILSSIAYSIIIYMAILFVFIFIHKFKDERDKLKILNSNLIEYSFNEREFLLSEERNRISQELHDSIGHSLMALSMNIKYLKGIKNRSNINEELDNMDKVIKESVQTLRSTVYNLKKLDECCDLKKEVYDIIKKFNRLDIVKINFDCASDIEKSTTTIKNTLIKTIKEGITNSLKHGNPTEINVTLTLVNSYIKLIIQDNGVGCQNIKPSAGLNGIKKRIEALNGKVAFESKARKGFTIETEIPGGF”, the protein production entry is “failed”.

Regarding “MENGEAKQSVPLLTPYKMGRFNLSHRVVLAPLTRQRSYGNVPQPHAAIYYSQRTTPGGFLITEATGVSDTAQGYQDTPGIWTKEHVEAWKPIVDAVHAKGGIFFCQIWHVGRVSNSGFQPNGKAPISCSDKPLMPQIRSNGIDEALFTPPRRLGIEEIPGIVNDFRLAARNAMEAGFDGVEIHGANGYLIDQFMKDTVNDRTDEYGGSLQNRCKFPLEIVDAVAKEIGPDRVGIRLSPFADYMESGDTNPGALGLYMAESLNKYGILYCHVIEARMKTMGEVHACPHTLMPMRKAFKGTFISAGGFTREDGNEAVSKGRTDLVAYGRWFLANPDLPKRFQVDAPLNKYDRPTFYTSDPVVGYTDYPFLESTA”, the protein production result is listed as “not failed”.

Consider “MENGLWEVLGSKGLLKKHEFIRILVQCLYSLGFKNSASCLEFESKILYKTADSEFLEKQVLSGNWDSCVQVLDRIFDNSMDDTRNTALYLVFKQCLLEYLKRGDVSLALNVLRKQAPLLRMGKEKIHRLACDIVYSKEMESGEVDNCLVLDLRRKLLVELEKLIPLPIVIPERRLEHLVETAVMDQIDTCMYHNSCDAVSLYKDHCCGRDQIPSETVQILVAHKNEVWFVQFSNSGKYLATASSDCTAIIWKVLDDNKVELKHTLESHQNPVSFVSWSPDDTKLLTCGNAEVLKLWDVDTGVLRHTFGNNNTGFTVSSCAWFPDSTRLVCGSSDPERGIVMWDTDGNEIKAWRGTRIPKVVDLAVTPDGESMITVFSDKEIRILNLETKVERVISEEQPITSLSISGDGKFFIVNLSCQEIHLWDLAGEWKQPLKFSGHRQSKYVIRSCFGGLDSSFIASGSEDSQVYIWNLKNTKPLEVLSGHSMTVNCVSWNPKNPRMLASASDDQTIRIWGPGKPNKPLN”, for which the protein production entry is recorded as “failed”.

Take “MENKQVSTTQAAAKEPLIGYVHSIETFGSVDGPGIRYVAFLQGCHMRCQYCHNPDTWKLNVGDQMTADEILEDAAKYRAFWGKTGGITVSGGESLVQIDFILDLFEKAKAMNISTCLDTSGQPFTREQPFFDKFERLMKVTDISLVDIKHIDSAKHKQLTQYGNENILDMIQYMAQHHDDMWIRHVLVPQRTDYDEDLKKLGDYIAKIPNDVVQKVEVLPYHTLGVKKYHEMKIKYRLEGIESPTQDRVANAEKLLHTADYNGYKTWMPLPKL”: the protein production entry is “failed”.

“MENLKKYLEVAKIAALAGGQVLKENFGKVKKENIEEKGEKDFVSYVDKTSEERIKEVILKFFPDHEVVGEEMGAEGSGSEYRWFIDPLDGTKNYINGFPIFAVSVGLVKGEEPIVGAVYLPYFDKLYWGAKGLGAYVNGKRIKVKDNESLKHAGVVYGFPSRSRRDISIYLNIFKDVFYEVGSMRRPGAAAVDLCMVAEGIFDGMMEFEMKPWDITAGLVILKEAGGVYTLVGEPFGVSDIIAGNKALHDFMLQVAKKYMEVAV”: the protein production result is “not failed”.

With “MENSRHNEFFLPLLLCIILPIIFMLTTNIKILRKTFSFILQNSFLQSFVTIFISIILEALPFIIIGVFLSSLIQVFISEETLSRIIPKNIVLGILSAATIGLIFPVCDCAIVPIVRRLLKKGLPLPIGITFMLSVPIINPVVLTSTYYAFLSNPHAPLIRAVAGWISAVLIGFIINKLDKSKTKQAKLHEILFNERVYMPKNNPIVTSNHNHEHHKCSCGHVHHEEEKFSALTLVHVLDHVSLELQDVGRFVIMGAFLSALMQTFIPRKYILSIGHGNISSIIVMMILAYVLCVCSETDAFIARTFVNQFTNGSIVAFLIFGPMIDIKNTLMLCETFNLKFVFKLVSIIIVVCFLIGLAFNFVKIPL”, the protein production result is “failed”.

Consider “MENVKVSVIVPVYNVETYLEEALMSLKNQTLKEIEFLIINDGSTDNSQKIIEEIAQDDPRFRVFNVKNGGIGKAFNLGVSEAKGEYIAEFESDDYVALHAYERLYNTAKSHHADVVRCNWVEFSSEEEVERDILWQYPDKYNQLIDLKTTDLIVQVYPWNAIYKKSMIEKENVTWDEEIKSYGDTGLFWKINSASQNVIFIKDCLYFYRQDNPNSTVNNVATKVPFLFQQFKLIRSNLIEQNKFERYKGYFYKQMFEKYFWAIEKLTHLRDESVYEVIQKVAVDFRQALETDQLNDIDFEYIKQFYQIANDPAAYYEDYLKNLYKVSVVMPIHNASKYLRQTLETVCEQSLREIEIILVENGSTDNTMDIINEFAVKDPRITGISIGKSNPGHARNVGISMARGRYLQFLDADDHFEANLLQDAYYRAYDSATDILLFGMKEKLPNGEVHVVHNPLLTNGGRMSGEEISLDEVTPYLYDKLFLLEYIKENNLVNLEQFVGEDAYFTYTALLGTEKIVALNKYLLTRIVRQDGLMSTYGMNYRDEFNLHDKMLEYLKQHAPNRIEAYRLKIINTLNWFIFDMNRVDQAFKERFYQELKEKYIQQLGLDLVKKEKYSNDPEQVERITRIQNILQYNLEIYQNIYKDFGMKKTFIIPNVHIQERGGKVIFGQEKTQGNGTAIEMFSIIIADNDTSNASGVIDFVYMGDNTKIIHDSLLVSLLIKKEGTTLKSIVLQAEWEKGYTLLQENMYYTFVDNVFTIWAGYTQKYAAFDYNVRILTSREGETHFSVVRQNQGYIQDTMTSIGNELTPINKIEGNEPTTIKKAVSKSLKKAKGLLK”, for which the protein production result is “failed”.

“MENWFRADTWFGRLVDVGNTFIWTYVLIALLLGLGLYFTFVSRFVQFRLLGEMGRLLVEGMNRKAFKERKGTSSFQAFAISTAARVGTGNLAGVAVAISLGGPGAIFWMWIIALIGAATGFIESTLAQIYKVKDKDGFRGGPAYYMEKALNARWAGILFAILITLCFGLIFNAVQTHTIADAFVGAYDLNPFFIGLIIAFVMAFIVFGGIRRIAVIAEVIVPTFAIAYVLIALVIVLLNITQVPSVIGLIVGNAFGIQEVVGGGFGAAIMHGIRRGLFSNEAGMGSAPNAAATAHVSHPVKQGLVQSLSVLTDTLIICSATAFLILLTDVYTVGEMGGIQLTQEALTVHIGEWSMTFVTIAISFFAFSSLLGNYYYGEANIQFISQNRALLTVFRLAFLAMILIGATSELQIIWEMADLIMGAMAIVNLIAIALLAKIAVQALTDYQHQRKQGIDPVFYKNSLPDLKNIEAWDEKPVKEKN”: the protein production result is “failed”.

In the case of “MEPMQVVKQRRDAALNALVSGVPFIRFLNITFDRRGDELTGVLNFDDKLIGNPFLPAIHGGVTAAFLEVTAVITLSWAHLFERIESGDLAPEDILTDENMRFPKTIDFTIDYLRSGLPRDAYARAYISRAGRRYASVRVEAWQDHHDKLYAQGTGHFLMPLEHHHHHH”, the protein production entry was “failed”.

With “MEPNCVQFLENRTILVTGASGFLAKVLVERILRLQPNVKRLYLLVRASDKKSAEQRYDVALGINTFGAINVLNFAKKCVKPKLLLHVSTVYVCGERPGHIVEKHFAMGESLNGKNKVDINTERRLADQKSKQFKEQGCSEEETEQAMKDFGLKRARLYGWPNTYVFTKAMGEMLLGHYRETMPIVIIRPTIITSTFSDPFPGWIEGLKTVDSVIIFYGKGILKCFLVDQKTVCDIIPVDMVVNAMIAIAADHCHDSGSHTVYHVGSSNQNPVIYKQIYEMMSRYFMKSPLVGRNGMLIVPKVTRISTLARFRVYTNLRYKLPIQILGLLSVISLSQRDKFALHNRKFKMAMRLVKLYKPYVLFKGIFDDKNMETLRIKNEAKDMEKLFGTNPKCIDWEDYFMIRISLAS”, the protein production entry is “failed”.
